We go through 11 molecules from US11541126B1, “Anti-ASGR1 antibody TLR8 agonist comprising conjugates and uses thereof” (Silverback Therapeutics, Inc., priority 2020, dated 2023).

For the assay, the target named is T1, HepG2 cells (which express ASGR1) (Homo sapiens, UniProt P07306).
T1 construct: endogenous in cells; host or cells: HepG2
T1 sequence (P07306 1-291): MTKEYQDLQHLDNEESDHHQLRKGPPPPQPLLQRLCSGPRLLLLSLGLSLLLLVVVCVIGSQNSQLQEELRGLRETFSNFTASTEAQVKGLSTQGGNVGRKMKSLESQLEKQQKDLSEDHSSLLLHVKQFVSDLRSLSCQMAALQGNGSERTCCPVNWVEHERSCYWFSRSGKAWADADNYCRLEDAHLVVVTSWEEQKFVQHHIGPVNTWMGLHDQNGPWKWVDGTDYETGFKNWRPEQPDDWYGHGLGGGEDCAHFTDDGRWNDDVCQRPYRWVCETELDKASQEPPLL
Kind of assay: Guava HepG2 cell binding screen of humanized anti-ASGR1 clones. The arrangement: unit not given here. Particulars: humanized G2D clones (Table 5); two numbers per cell, not explained. As to the method: Hybridomas producing monoclonal antibodies (mAbs) specific for human ASGR1 were prepared from Balb/C mice immunized with ASGR1-AviHis at a service provider using their propriety protocol. Antibody heavy and light chain sequences were obtained, amplified, and cloned. Clone supernatants containing the expressed mAbs were screened for binding to a human ASGR1-IgG1Fc fusion protein, and those with a positive signal as measured by enzyme linked immunosorbent assay (ELISA) were screened for cell binding on HepG2 cells (which express ASGR1).

B1: hzG2D-33: humanized G2D clone; "G2D VL region ... of clones 1-16, 19-21, 26-29, 31, and 33 ... grafted into the human germline sequence VKI-L1 with JK4" (antibody, V domains shown)
VH: QVQLVQSGAEVKKPGASVKVSCKASGYTFTGYYMHWVRQAPGQRLEWMGRINPNNGATNYNQNFKDKASLTVDTSASTAYMELSSLTSEDTAVYYCTSVNFYYWGQGTTVTVSS
VL: DIQMTQSPSSLSASVGDRVTITCKASQVINSYLSWFQQKPGKAPKSLIYRANTLVDGVPSRFSGSGSGTDFTLTISSLQPEDFATYYCLQYAEFPYTFGGGTKVEIK
modifications: Synthetic sequence hzG2.51D VH R66K, V67A, T68S, I69L, R71V, R84T, A93T, R94S; Synthetic sequence hzG2D VLa
With B1, the “Guava HepG2 Screen” value is recorded as 164/85.

B2: hzG2D-34: humanized G2D clone; "G2D VL region ... of clones 22, 23, 30, 32, and 34-37 ... grafted into the human germline sequence VKI-O2 with JK4" (antibody, V domains shown)
VH: QVQLVQSGAEVKKPGASVKVSCKASGYTFTGYYMHWVRQAPGQRLEWMGRINPNNGATNYNQNFKDKASLTVDTSASTAYMELSSLTSEDTAVYYCTSVNFYYWGQGTTVTVSS
VL: DIQMTQSPSSLSASVGDRVTITCKASQVINSYLSWYQQKPGKAPKLLIYRANTLVDGVPSRFSGSGSGTDFTLTISSLQPEDFATYYCLQYAEFPYTFGGGTKVEIK
modifications: Synthetic sequence hzG2.51D VH R66K, V67A, T68S, I69L, R71V, R84T, A93T, R94S; Synthetic sequence hzG2D VLb
As to B2, the “Guava HepG2 Screen” value is on record as 194/109.

B3: hzG2D-2: humanized G2D clone; "G2D VL region ... of clones 1-16, 19-21, 26-29, 31, and 33 ... grafted into the human germline sequence VKI-L1 with JK4" (antibody, V domains shown)
VH: QVQLVQSGAEVKKPGASVKVSCKASGYSFTGYYMHWVRQAPGQRLEWMGRINPNNGATNYNQNFKDRVTITRDTSASTAYMELSSLRSEDTAVYYCARVNFYYWGQGTTLTVSS
VL: DIQMTQSPSSLSASVGDRVTITCKASQVINSYLSWFQQKPGKAPKSLIYRANTLVDGVPSRFSGSGSGTDFTLTISSLQPEDFATYYCLQYAEFPYTFGGGTKVEIK
modifications: Synthetic sequence hzG2.1D VH T28S, V109L; Synthetic sequence hzG2D VLa
For B3, the “Guava HepG2 Screen” value is 38/20.

B4: hzG2D-9: humanized G2D clone; "G2D VL region ... of clones 1-16, 19-21, 26-29, 31, and 33 ... grafted into the human germline sequence VKI-L1 with JK4" (antibody, V domains shown)
VH: QVQLVQSGAEVKKPGASVKVSCKASGYTFTGYYMHWVRQAPGQRLEWMGRINPNNGATNYNQNFKDKATITRDTSASTAYMELSSLRSEDTAVYYCTSVNFYYWGQGTTLTVSS
VL: DIQMTQSPSSLSASVGDRVTITCKASQVINSYLSWFQQKPGKAPKSLIYRANTLVDGVPSRFSGSGSGTDFTLTISSLQPEDFATYYCLQYAEFPYTFGGGTKVEIK
modifications: Synthetic sequence hzG2.40D VH R66K, V67A, A93T, R94S, V109L; Synthetic sequence hzG2D VLa
On to B4, for which the “Guava HepG2 Screen” value was 155/117.

B5: hzG2D-6: humanized G2D clone; "G2D VL region ... of clones 1-16, 19-21, 26-29, 31, and 33 ... grafted into the human germline sequence VKI-L1 with JK4" (antibody, V domains shown)
VH: QVQLVQSGAEVKKPGASVKVSCKASGYTFTGYYMHWVRQAPGQRLEWMGRINPNNGATNYNQNFKDRVSLTVDTSASTAYMELSSLRSEDTAVYYCARVNFYYWGQGTTLTVSS
VL: DIQMTQSPSSLSASVGDRVTITCKASQVINSYLSWFQQKPGKAPKSLIYRANTLVDGVPSRFSGSGSGTDFTLTISSLQPEDFATYYCLQYAEFPYTFGGGTKVEIK
modifications: Synthetic sequence hzG2.43D VH T68S, I69L, R71V, V109L; Synthetic sequence hzG2D VLa
With B5, the “Guava HepG2 Screen” value is listed as 39/23.

B6: hzG2D-4: humanized G2D clone; "G2D VL region ... of clones 1-16, 19-21, 26-29, 31, and 33 ... grafted into the human germline sequence VKI-L1 with JK4" (antibody, V domains shown)
VH: QVQLVQSGAEVKKPGASVKVSCKASGYTFTGYYMHWVRQAPGQRLEWMGRINPNNGATNYNQNFKDKATITRDTSASTAYMELSSLRSEDTAVYYCARVNFYYWGQGTTLTVSS
VL: DIQMTQSPSSLSASVGDRVTITCKASQVINSYLSWFQQKPGKAPKSLIYRANTLVDGVPSRFSGSGSGTDFTLTISSLQPEDFATYYCLQYAEFPYTFGGGTKVEIK
modifications: Synthetic sequence hzG2.39D VH R66K, V67A, V109L; Synthetic sequence hzG2D VLa
For the molecule B6, the “Guava HepG2 Screen” value is reported as 55/22.

B7: hzG2D-7: humanized G2D clone; "G2D VL region ... of clones 1-16, 19-21, 26-29, 31, and 33 ... grafted into the human germline sequence VKI-L1 with JK4" (antibody, V domains shown)
VH: QVQLVQSGAEVKKPGASVKVSCKASGYSFTGYYMHWVRQAPGQRLEWMGRINPNNGATNYNQNFKDKATITRDTSASTAYMELSSLRSEDTAVYYCARVNFYYWGQGTTLTVSS
VL: DIQMTQSPSSLSASVGDRVTITCKASQVINSYLSWFQQKPGKAPKSLIYRANTLVDGVPSRFSGSGSGTDFTLTISSLQPEDFATYYCLQYAEFPYTFGGGTKVEIK
modifications: Synthetic sequence hzG2.2D VH T28S, R66K, V67A, V109L; Synthetic sequence hzG2D VLa
With B7, the “Guava HepG2 Screen” value is given as 46/22.

B8: hzG2D-3: humanized G2D clone; "G2D VL region ... of clones 1-16, 19-21, 26-29, 31, and 33 ... grafted into the human germline sequence VKI-L1 with JK4" (antibody, V domains shown)
VH: QVQLVQSGAEVKKPGASVKVSCKASGYTFTGYYMHWVRQAPGQRLEWMGRINPNNGATNYNQNFKDRVTITRDTSASTAYMELSSLRSEDTAVYYCTSVNFYYWGQGTTLTVSS
VL: DIQMTQSPSSLSASVGDRVTITCKASQVINSYLSWFQQKPGKAPKSLIYRANTLVDGVPSRFSGSGSGTDFTLTISSLQPEDFATYYCLQYAEFPYTFGGGTKVEIK
modifications: Synthetic sequence hzG2.45D VH A93T, R94S, V109L; Synthetic sequence hzG2D VLa
Take B8: the “Guava HepG2 Screen” value is given as 131/95.

B9: hzG2D-5: humanized G2D clone; "G2D VL region ... of clones 1-16, 19-21, 26-29, 31, and 33 ... grafted into the human germline sequence VKI-L1 with JK4" (antibody, V domains shown)
VH: QVQLVQSGAEVKKPGASVKVSCKASGYSFTGYYMHWVRQAPGQRLEWMGRINPNNGATNYNQNFKDRVTITRDTSASTAYMELSSLRSEDTAVYYCTSVNFYYWGQGTTLTVSS
VL: DIQMTQSPSSLSASVGDRVTITCKASQVINSYLSWFQQKPGKAPKSLIYRANTLVDGVPSRFSGSGSGTDFTLTISSLQPEDFATYYCLQYAEFPYTFGGGTKVEIK
modifications: Synthetic sequence hzG2.8D VH T28S, A93T, R94S, V109L; Synthetic sequence hzG2D VLa
For B9, the “Guava HepG2 Screen” value is recorded as 91/55.

B10: hzG2D-8: humanized G2D clone; "G2D VL region ... of clones 1-16, 19-21, 26-29, 31, and 33 ... grafted into the human germline sequence VKI-L1 with JK4" (antibody, V domains shown)
VH: QVQLVQSGAEVKKPGASVKVSCKASGYSFTGYYMHWVRQAPGQRLEWMGRINPNNGATNYNQNFKDRVSLTVDTSASTAYMELSSLRSEDTAVYYCARVNFYYWGQGTTLTVSS
VL: DIQMTQSPSSLSASVGDRVTITCKASQVINSYLSWFQQKPGKAPKSLIYRANTLVDGVPSRFSGSGSGTDFTLTISSLQPEDFATYYCLQYAEFPYTFGGGTKVEIK
modifications: Synthetic sequence hzG2.6D VH T28S, T68S, I69L, R71V, V109L; Synthetic sequence hzG2D VLa
As for B10, the “Guava HepG2 Screen” value was 31/21.

B11: hzG2D-10: humanized G2D clone; "G2D VL region ... of clones 1-16, 19-21, 26-29, 31, and 33 ... grafted into the human germline sequence VKI-L1 with JK4" (antibody, V domains shown)
VH: QVQLVQSGAEVKKPGASVKVSCKASGYTFTGYYMHWVRQAPGQRLEWMGRINPNNGATNYNQNFKDRVSLTVDTSASTAYMELSSLRSEDTAVYYCTSVNFYYWGQGTTLTVSS
VL: DIQMTQSPSSLSASVGDRVTITCKASQVINSYLSWFQQKPGKAPKSLIYRANTLVDGVPSRFSGSGSGTDFTLTISSLQPEDFATYYCLQYAEFPYTFGGGTKVEIK
modifications: Synthetic sequence hzG2.44D VH T68S, I69L, R71V, A93T, R94S, V109L; Synthetic sequence hzG2D VLa
Regarding B11, the “Guava HepG2 Screen” value is listed as 149/63.
